Assay results: patent US20050112690A1

Biological target: extra-domain B (ED-B) of fibronectin, as present in arteriosclerotic plaque of aorta specimens of WHHL rabbits (rabbit (WHHL rabbit aorta tissue)) (UniProt Q28749)
Assay: in vitro perfusion (Ussing chamber) of WHHL rabbit aorta specimens with radiolabeled scFv, 20 min at room temperature, gamma counting

UniProt Q28749, sequence (Q28749 1221-1309 limits assumed): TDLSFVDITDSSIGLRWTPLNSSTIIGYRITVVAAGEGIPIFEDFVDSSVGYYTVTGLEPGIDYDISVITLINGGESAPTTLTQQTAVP

“125I-labeled L19 derivative ZK212667 (L19) (scFv)” showed a rating factor (bound amount on arteriosclerotic vs non-arteriosclerotic aorta sections) of 2.8.
